Test results taken from US20140349405, “RNA-DIRECTED DNA CLEAVAGE AND GENE EDITING BY CAS9 ENZYME FROM NEISSERIA MENINGITIDIS” (WISCONSIN ALUMNI RESEARCH FOUNDATION, published 2014).
Positions count from the first letter of the chain named.

B1: Neisseria CRISPR repeat promoter wt (dsDNA)
DNA 1: GTTGTAGCTCCCTTTCTCATTTCGCAGTGCTACAAT
DNA 2: ATTGTAGCACTGCGAAATGAGAAAGGGAGCTACAAC
B2: Neisseria CRISPR repeat promoter mut (dsDNA)
DNA 1: B1 DNA 1 with T31C, A32C
DNA 2: B1 DNA 2 with T5G, A6G
modifications: [31-32]

Tests used:
[1] = target: T1, RNA polymerase sigma70 holoenzyme (Escherichia coli, UniProt P0A7Z4;P0A8V2;P0A8T7;P0A800;P00579 …); experiment: in vitro transcription, 168 nt product; 10 mM Mg, 100 mM KCl, 37 C; conditions: tags: Epicentre, sigma-saturated; chain copies: 2,1,1,1,1
[2] = target: T1, RNA polymerase sigma70 holoenzyme; experiment: in vitro transcription, no transcript; conditions: tags: Epicentre, sigma-saturated; chain copies: 2,1,1,1,1

T1 sequence (P0A7Z4 whole entry, chain 1 of 4): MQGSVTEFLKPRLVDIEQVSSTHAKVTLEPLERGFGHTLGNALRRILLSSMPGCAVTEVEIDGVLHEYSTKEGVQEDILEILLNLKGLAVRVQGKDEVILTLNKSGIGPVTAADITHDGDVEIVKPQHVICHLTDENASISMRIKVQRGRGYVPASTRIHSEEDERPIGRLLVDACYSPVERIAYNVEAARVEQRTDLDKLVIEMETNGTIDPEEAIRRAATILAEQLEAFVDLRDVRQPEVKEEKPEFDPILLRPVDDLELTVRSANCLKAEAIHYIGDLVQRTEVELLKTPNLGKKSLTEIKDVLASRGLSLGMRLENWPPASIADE
T1 sequence (P0A8V2 whole entry, chain 2 of 4): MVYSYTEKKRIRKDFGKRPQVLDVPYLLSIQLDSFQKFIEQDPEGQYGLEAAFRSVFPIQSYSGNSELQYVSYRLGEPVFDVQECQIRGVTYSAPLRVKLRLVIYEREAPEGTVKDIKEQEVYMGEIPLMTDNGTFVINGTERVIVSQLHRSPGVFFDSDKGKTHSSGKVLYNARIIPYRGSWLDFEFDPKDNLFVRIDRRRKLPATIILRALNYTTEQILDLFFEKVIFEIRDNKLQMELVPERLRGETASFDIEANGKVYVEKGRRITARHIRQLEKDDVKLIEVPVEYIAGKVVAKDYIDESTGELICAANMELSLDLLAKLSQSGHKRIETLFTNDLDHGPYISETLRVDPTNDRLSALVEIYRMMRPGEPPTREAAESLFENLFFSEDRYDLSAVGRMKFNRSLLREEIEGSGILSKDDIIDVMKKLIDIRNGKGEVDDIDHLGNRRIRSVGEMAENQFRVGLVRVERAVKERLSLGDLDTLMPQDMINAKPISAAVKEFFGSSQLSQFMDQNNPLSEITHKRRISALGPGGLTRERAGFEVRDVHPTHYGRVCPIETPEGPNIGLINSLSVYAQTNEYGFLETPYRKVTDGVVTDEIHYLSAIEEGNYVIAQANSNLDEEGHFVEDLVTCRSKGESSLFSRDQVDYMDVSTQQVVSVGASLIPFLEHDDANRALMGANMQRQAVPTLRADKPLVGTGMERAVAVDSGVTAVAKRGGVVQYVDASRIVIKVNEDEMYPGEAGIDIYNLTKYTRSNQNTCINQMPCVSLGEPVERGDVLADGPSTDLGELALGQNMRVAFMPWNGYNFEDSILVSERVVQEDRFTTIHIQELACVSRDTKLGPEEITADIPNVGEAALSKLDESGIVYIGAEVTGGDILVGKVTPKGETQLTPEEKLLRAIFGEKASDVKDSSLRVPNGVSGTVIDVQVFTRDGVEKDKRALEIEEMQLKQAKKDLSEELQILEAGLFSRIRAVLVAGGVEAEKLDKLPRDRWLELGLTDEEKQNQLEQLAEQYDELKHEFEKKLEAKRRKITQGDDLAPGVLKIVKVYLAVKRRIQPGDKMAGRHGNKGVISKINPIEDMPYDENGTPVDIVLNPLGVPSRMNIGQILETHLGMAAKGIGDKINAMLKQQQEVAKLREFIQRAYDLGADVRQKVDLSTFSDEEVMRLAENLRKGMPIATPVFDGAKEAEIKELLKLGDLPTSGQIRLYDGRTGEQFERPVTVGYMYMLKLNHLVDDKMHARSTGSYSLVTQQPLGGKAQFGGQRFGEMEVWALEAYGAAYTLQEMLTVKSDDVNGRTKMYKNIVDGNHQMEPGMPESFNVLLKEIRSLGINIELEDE
T1 sequence (P0A800 2-91, chain 4 of 4): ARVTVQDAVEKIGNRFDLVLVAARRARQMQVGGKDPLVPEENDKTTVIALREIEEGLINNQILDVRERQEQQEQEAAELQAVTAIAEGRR
T1 sequence (P00579 whole entry, chain 5 of 4): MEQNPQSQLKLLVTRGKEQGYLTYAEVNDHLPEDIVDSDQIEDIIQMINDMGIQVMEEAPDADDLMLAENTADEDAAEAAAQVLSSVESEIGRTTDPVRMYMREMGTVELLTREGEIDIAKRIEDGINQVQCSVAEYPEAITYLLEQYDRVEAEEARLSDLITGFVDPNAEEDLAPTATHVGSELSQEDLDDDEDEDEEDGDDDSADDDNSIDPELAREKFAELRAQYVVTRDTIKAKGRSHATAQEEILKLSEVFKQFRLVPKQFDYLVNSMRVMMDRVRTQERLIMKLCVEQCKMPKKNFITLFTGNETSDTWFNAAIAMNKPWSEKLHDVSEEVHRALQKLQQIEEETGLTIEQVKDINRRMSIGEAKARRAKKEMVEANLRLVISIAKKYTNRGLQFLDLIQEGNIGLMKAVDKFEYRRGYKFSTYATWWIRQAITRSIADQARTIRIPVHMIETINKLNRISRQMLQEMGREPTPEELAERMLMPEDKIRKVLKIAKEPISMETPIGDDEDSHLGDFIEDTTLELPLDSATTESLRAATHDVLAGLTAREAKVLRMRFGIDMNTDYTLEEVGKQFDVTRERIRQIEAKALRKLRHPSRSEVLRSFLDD

Row | Binder | binding result [1] | binding result [2]
1 | B1 | binds | 
2 | B2 |  | no binding
